Source: publication PMC8921277
pKd: −log10 of the molar value.

Target: RSV F DS-Cav1 (human respiratory syncytial virus) (UniProt P03420)
Assay: BLI; […] (AHC) biosensors, […] (300-0.41 nM); Octet RED96e; […]

MPE8 Fab, sequence (VH): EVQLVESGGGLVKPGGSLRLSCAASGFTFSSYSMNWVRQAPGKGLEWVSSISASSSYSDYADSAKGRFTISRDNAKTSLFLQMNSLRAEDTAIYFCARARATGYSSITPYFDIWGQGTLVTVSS
MPE8 Fab, sequence (VL): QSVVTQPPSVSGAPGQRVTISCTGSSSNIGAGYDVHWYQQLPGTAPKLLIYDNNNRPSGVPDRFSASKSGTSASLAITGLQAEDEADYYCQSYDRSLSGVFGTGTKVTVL
UniProt P03420, sequence (P03420 26-513): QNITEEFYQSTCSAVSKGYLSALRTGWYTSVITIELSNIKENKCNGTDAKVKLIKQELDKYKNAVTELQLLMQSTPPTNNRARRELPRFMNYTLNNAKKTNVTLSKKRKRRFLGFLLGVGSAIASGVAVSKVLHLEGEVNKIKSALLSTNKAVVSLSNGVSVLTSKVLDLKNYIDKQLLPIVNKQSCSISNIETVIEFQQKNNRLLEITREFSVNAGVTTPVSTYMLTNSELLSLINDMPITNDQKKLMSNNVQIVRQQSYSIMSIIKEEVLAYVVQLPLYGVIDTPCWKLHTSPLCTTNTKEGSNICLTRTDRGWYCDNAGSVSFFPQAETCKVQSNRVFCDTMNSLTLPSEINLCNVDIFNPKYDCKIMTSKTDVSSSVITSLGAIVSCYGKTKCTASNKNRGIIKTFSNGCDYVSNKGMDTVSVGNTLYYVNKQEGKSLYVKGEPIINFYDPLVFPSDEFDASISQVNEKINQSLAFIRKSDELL

Substance: MPE8 Fab
- pKd: > 12.00
- koff: < 1e-07 s⁻¹
- kon: 360000 M⁻¹ s⁻¹
